According to the supplement of paper PMC10567573:

B1: WDR88 (parent)
chain: LLTITKAHSNAISNCCFTFSGHFL

Variants of: B1
Test: protein stability index of a GFP-peptide fusion (GPS, HEK-293T) (PSI 1-6); higher = more stable
Details: c terminus: a fixed tail appended
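Further: lentivirally expressed fusions sorted by FACS into six bins by GFP to DsRed ratio, PSI derived from sequencing read proportions per bin multiplied by bin number.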

With LLTITKAHSNAISNCCFTTSGHFL [F19T] as the variant, how does the protein stability index read?
Its protein stability index is 2.52.

With LLTITKAHSNAISNCCFTISGHFL [F19I] as the variant, how does the protein stability index read?
The protein stability index was 2.85.

Which protein stability index does the source give for LLTITKAHSNAISNCCFTQSGHFL [F19Q] here?
Its protein stability index is 1.63.

Which protein stability index does the source give for LLTITKAHSNAISNCCFTVSGHFL [F19V] here?
The protein stability index was 2.15.

For LLTITKAHSNAISNCCFTLSGHFL [F19L], which protein stability index is on record?
Its protein stability index is 2.82.

Which protein stability index does the source give for LLTITKAHSNAISNCCFTYSGHFL [F19Y] here?
Its protein stability index is 2.82.

For LLTITKAHSNAISNCCFTMSGHFL [F19M], which protein stability index is on record?
The protein stability index was 1.69.

Which protein stability index does the source give for LLTITKAHSNAISNCCFTGSGHFL [F19G] here?
Its protein stability index is 2.62.

Which protein stability index does the source give for LLTITKAHSNAISNCCFTSSGHFL [F19S] here?
The protein stability index was 2.56.

Which protein stability index does the source give for LLTITKAHSNAISNCCFTNSGHFL [F19N] here?
Its protein stability index is 2.33.

Which protein stability index does the source give for LLTITKAHSNAISNCCFTKSGHFL [F19K] here?
The protein stability index was 1.82.

With LLTITKAHSNAISNCCFTPSGHFL [F19P] as the variant, how does the protein stability index read?
The protein stability index was 1.88.

With LLTITKAHSNAISNCCFTWSGHFL [F19W] as the variant, how does the protein stability index read?
The protein stability index was 2.32.

Which protein stability index does the source give for LLTITKAHSNAISNCCFTHSGHFL [F19H] here?
Its protein stability index is 3.04.

Which protein stability index does the source give for LLTITKAHSNAISNCCFTRSGHFL [F19R] here?
The protein stability index was 2.66.

With LLTITKAHSNAISNCCFTFFGHFL [S20F] as the variant, how does the protein stability index read?
Its protein stability index is 2.6.

For LLTITKAHSNAISNCCFTFWGHFL [S20W], which protein stability index is on record?
Its protein stability index is 2.06.

Which protein stability index does the source give for LLTITKAHSNAISNCCFTFRGHFL [S20R] here?
The protein stability index was 3.76.

With LLTITKAHSNAISNCCFTFTGHFL [S20T] as the variant, how does the protein stability index read?
Its protein stability index is 2.67.

With LLTITKAHSNAISNCCFTFVGHFL [S20V] as the variant, how does the protein stability index read?
Its protein stability index is 2.54.

For LLTITKAHSNAISNCCFTFYGHFL [S20Y], which protein stability index is on record?
Its protein stability index is 2.36.

With LLTITKAHSNAISNCCFTFAGHFL [S20A] as the variant, how does the protein stability index read?
The protein stability index was 1.09.

With LLTITKAHSNAISNCCFTFMGHFL [S20M] as the variant, how does the protein stability index read?
Its protein stability index is 2.56.

Which protein stability index does the source give for LLTITKAHSNAISNCCFTFGGHFL [S20G] here?
Its protein stability index is 2.99.

With LLTITKAHSNAISNCCFTFIGHFL [S20I] as the variant, how does the protein stability index read?
The protein stability index was 2.07.

With LLTITKAHSNAISNCCFTFNGHFL [S20N] as the variant, how does the protein stability index read?
Its protein stability index is 2.94.

For LLTITKAHSNAISNCCFTFKGHFL [S20K], which protein stability index is on record?
Its protein stability index is 2.04.

With LLTITKAHSNAISNCCFTFEGHFL [S20E] as the variant, how does the protein stability index read?
The protein stability index was 2.51.

Which protein stability index does the source give for LLTITKAHSNAISNCCFTFLGHFL [S20L] here?
The protein stability index was 2.94.

With LLTITKAHSNAISNCCFTFDGHFL [S20D] as the variant, how does the protein stability index read?
Its protein stability index is 1.98.

For LLTITKAHSNAISNCCFTFCGHFL [S20C], which protein stability index is on record?
Its protein stability index is 2.69.

For LLTITKAHSNAISNCCFTFPGHFL [S20P], which protein stability index is on record?
Its protein stability index is 2.34.

Which protein stability index does the source give for LLTITKAHSNAISNCCFTFQGHFL [S20Q] here?
Its protein stability index is 2.88.

For LLTITKAHSNAISNCCFTFSGHEL [F23E], which protein stability index is on record?
Its protein stability index is 2.1.

For LLTITKAHSNAISNCCFTFSGHTL [F23T], which protein stability index is on record?
Its protein stability index is 1.91.

Which protein stability index does the source give for LLTITKAHSNAISNCCFTFSGHSL [F23S] here?
The protein stability index was 2.72.

Which protein stability index does the source give for LLTITKAHSNAISNCCFTFSGHIL [F23I] here?
The protein stability index was 2.79.

For LLTITKAHSNAISNCCFTFSGHVL [F23V], which protein stability index is on record?
Its protein stability index is 1.99.

With LLTITKAHSNAISNCCFTFSGHKL [F23K] as the variant, how does the protein stability index read?
Its protein stability index is 1.94.

For LLTITKAHSNAISNCCFTFSGHPL [F23P], which protein stability index is on record?
Its protein stability index is 2.96.

For LLTITKAHSNAISNCCFTFSGHQL [F23Q], which protein stability index is on record?
The protein stability index was 1.79.

For LLTITKAHSNAISNCCFTFSGHHL [F23H], which protein stability index is on record?
Its protein stability index is 2.91.

With LLTITKAHSNAISNCCFTFSGHWL [F23W] as the variant, how does the protein stability index read?
The protein stability index was 3.34.

With LLTITKAHSNAISNCCFTFSGHDL [F23D] as the variant, how does the protein stability index read?
Its protein stability index is 1.95.

With LLTITKAHSNAISNCCFTFSGHAL [F23A] as the variant, how does the protein stability index read?
Its protein stability index is 3.02.

With LLTITKAHSNAISNCCFTFSGHML [F23M] as the variant, how does the protein stability index read?
Its protein stability index is 3.51.

For LLTITKAHSNAISNCCFTFSGHNL [F23N], which protein stability index is on record?
The protein stability index was 1.99.

With LLTITKAHSNAISNCCFTFSGHYL [F23Y] as the variant, how does the protein stability index read?
The protein stability index was 2.94.

With LLTITKAHSNAISNCCFTFSGHGL [F23G] as the variant, how does the protein stability index read?
The protein stability index was 2.05.

Which protein stability index does the source give for LLTITKAHSNAISNCCFTFSGTFL [H22T] here?
Its protein stability index is 2.83.

Which protein stability index does the source give for LLTITKAHSNAISNCCFTFSGKFL [H22K] here?
Its protein stability index is 2.06.

With LLTITKAHSNAISNCCFTFSGPFL [H22P] as the variant, how does the protein stability index read?
The protein stability index was 2.51.

For LLTITKAHSNAISNCCFTFSGRFL [H22R], which protein stability index is on record?
The protein stability index was 1.27.

For LLTITKAHSNAISNCCFTFSGVFL [H22V], which protein stability index is on record?
The protein stability index was 2.67.

For LLTITKAHSNAISNCCFTFSGAFL [H22A], which protein stability index is on record?
Its protein stability index is 2.56.

Which protein stability index does the source give for LLTITKAHSNAISNCCFTFSGNFL [H22N] here?
The protein stability index was 2.9.

With LLTITKAHSNAISNCCFTFSGWFL [H22W] as the variant, how does the protein stability index read?
The protein stability index was 3.16.

With LLTITKAHSNAISNCCFTFSGDFL [H22D] as the variant, how does the protein stability index read?
Its protein stability index is 2.31.

With LLTITKAHSNAISNCCFTFSGYFL [H22Y] as the variant, how does the protein stability index read?
The protein stability index was 2.93.

Which protein stability index does the source give for LLTITKAHSNAISNCCFTFSGMFL [H22M] here?
Its protein stability index is 3.59.

With LLTITKAHSNAISNCCFTFSGQFL [H22Q] as the variant, how does the protein stability index read?
Its protein stability index is 2.78.

Which protein stability index does the source give for LLTITKAHSNAISNCCFTFSGFFL [H22F] here?
The protein stability index was 2.02.

With LLTITKAHSNAISNCCFTFSGEFL [H22E] as the variant, how does the protein stability index read?
The protein stability index was 2.89.

Which protein stability index does the source give for LLTITKAHSNAISNCCFTFSGCFL [H22C] here?
The protein stability index was 3.5.

For LLTITKAHSNAISNCCFTFSGSFL [H22S], which protein stability index is on record?
The protein stability index was 2.34.

Which protein stability index does the source give for LLTITKAHSNAISNCCFTFSGGFL [H22G] here?
Its protein stability index is 2.96.

Which protein stability index does the source give for LLTITKAHSNAISNCCFTFSGIFL [H22I] here?
Its protein stability index is 3.1.

For LLTITKAHSNAISNCCFTFSGLFL [H22L], which protein stability index is on record?
The protein stability index was 3.61.

With LLTITKAHSNAISNCCFTFSGHFD [L24D] as the variant, how does the protein stability index read?
Its protein stability index is 1.92.

For LLTITKAHSNAISNCCFTFSGHFC [L24C], which protein stability index is on record?
Its protein stability index is 2.68.

Which protein stability index does the source give for LLTITKAHSNAISNCCFTFSGHFG [L24G] here?
Its protein stability index is 2.88.

With LLTITKAHSNAISNCCFTFSGHFA [L24A] as the variant, how does the protein stability index read?
The protein stability index was 2.74.

With LLTITKAHSNAISNCCFTFSGHFF [L24F] as the variant, how does the protein stability index read?
The protein stability index was 3.56.

Which protein stability index does the source give for LLTITKAHSNAISNCCFTFSGHFE [L24E] here?
Its protein stability index is 1.77.

Which protein stability index does the source give for LLTITKAHSNAISNCCFTFSGHFH [L24H] here?
Its protein stability index is 2.63.

Which protein stability index does the source give for LLTITKAHSNAISNCCFTFSNHFL [G21N] here?
The protein stability index was 2.42.

For LLTITKAHSNAISNCCFTFSYHFL [G21Y], which protein stability index is on record?
Its protein stability index is 2.25.

With LLTITKAHSNAISNCCFTFSSHFL [G21S] as the variant, how does the protein stability index read?
Its protein stability index is 3.32.

Which protein stability index does the source give for LLTITKAHSNAISNCCFTFSTHFL [G21T] here?
Its protein stability index is 3.34.

For LLTITKAHSNAISNCCFTFSDHFL [G21D], which protein stability index is on record?
Its protein stability index is 2.75.

With LLTITKAHSNAISNCCFTFSEHFL [G21E] as the variant, how does the protein stability index read?
The protein stability index was 2.6.

With LLTITKAHSNAISNCCFTFSKHFL [G21K] as the variant, how does the protein stability index read?
The protein stability index was 2.77.

For LLTITKAHSNAISNCCFTFSPHFL [G21P], which protein stability index is on record?
Its protein stability index is 3.

For LLTITKAHSNAISNCCFTFSLHFL [G21L], which protein stability index is on record?
The protein stability index was 2.46.

Which protein stability index does the source give for LLTITKAHSNAISNCCFTFSAHFL [G21A] here?
The protein stability index was 2.88.

With LLTITKAHSNAISNCCFTFSFHFL [G21F] as the variant, how does the protein stability index read?
The protein stability index was 2.41.

With LLTITKAHSNAISNCCFTFSHHFL [G21H] as the variant, how does the protein stability index read?
Its protein stability index is 2.53.

Which protein stability index does the source give for LLTITKAHSNAISNCCFTFSIHFL [G21I] here?
The protein stability index was 2.97.

For LLTITKAHSNAISNCCFTFSRHFL [G21R], which protein stability index is on record?
Its protein stability index is 1.97.

Which protein stability index does the source give for LLTITKAHSNAISNCCFTFSQHFL [G21Q] here?
Its protein stability index is 2.92.

With LLTITKAHSNAISNCCFTFSWHFL [G21W] as the variant, how does the protein stability index read?
Its protein stability index is 2.94.

With LLTITKAHSNAISNCCFTFSMHFL [G21M] as the variant, how does the protein stability index read?
Its protein stability index is 3.69.

For LLTITKAHSNAISNCCFTFSCHFL [G21C], which protein stability index is on record?
Its protein stability index is 2.31.

Which protein stability index does the source give for LLTITKAHSNAISNCCFTFSVHFL [G21V] here?
Its protein stability index is 2.89.
